Experimental data as given in paper PMC6555848.

target: fluorescein-labeled phospho-Tyr peptide derived from the EPO receptor (FAM-GpYLVLDKW); assay: fluorescence polarisation; 10 nM FAM-labelled peptide, increasing STAT5B protein; 20 mM HEPES, 50 mM NaCl, 0.1% NP-40 substitute, 10% DMSO; 1 h at room temperature; 1:1 model; pH of the Kd values printed in the text not stated (pH 6.8, 7.25, 7.5 or 7.9 were used)

Row | Kd [nM] | Substance
1 | 229 | STAT5B^N642Q (from UniProt P51692 1-787) (natural protein)
2 | 612 | STAT5B^N642A (from UniProt P51692 1-787) (natural protein)
3 | 261 | STAT5B^N642D (from UniProt P51692 1-787) (natural protein)
